The target in one data set is T1, GST-BIN2, Q39011.
T1 chain: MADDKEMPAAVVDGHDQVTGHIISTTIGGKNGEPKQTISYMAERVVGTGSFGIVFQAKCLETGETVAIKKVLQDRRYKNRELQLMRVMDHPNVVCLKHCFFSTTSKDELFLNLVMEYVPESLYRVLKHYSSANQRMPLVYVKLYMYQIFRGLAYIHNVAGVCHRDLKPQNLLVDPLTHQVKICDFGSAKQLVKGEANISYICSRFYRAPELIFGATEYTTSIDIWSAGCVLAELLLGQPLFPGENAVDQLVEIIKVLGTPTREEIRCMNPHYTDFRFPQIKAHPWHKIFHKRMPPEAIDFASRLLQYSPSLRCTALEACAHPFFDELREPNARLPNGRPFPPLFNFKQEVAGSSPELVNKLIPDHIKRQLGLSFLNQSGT

The target of data set [1] is T2, GST-BSU1-KL (N-terminal Kelch domain).
T2 chain: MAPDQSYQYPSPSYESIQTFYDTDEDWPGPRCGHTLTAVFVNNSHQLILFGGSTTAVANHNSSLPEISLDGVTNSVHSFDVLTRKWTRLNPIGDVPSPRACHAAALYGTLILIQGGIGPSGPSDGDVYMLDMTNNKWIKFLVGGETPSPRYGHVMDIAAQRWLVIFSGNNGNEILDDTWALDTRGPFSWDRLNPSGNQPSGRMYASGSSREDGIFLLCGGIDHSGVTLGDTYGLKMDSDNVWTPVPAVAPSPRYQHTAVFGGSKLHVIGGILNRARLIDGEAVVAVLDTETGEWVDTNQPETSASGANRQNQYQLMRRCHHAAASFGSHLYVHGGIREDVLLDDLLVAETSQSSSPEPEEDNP

Another data set concerns the target T3, MBP-BZR1, Q8S307.
T3 chain: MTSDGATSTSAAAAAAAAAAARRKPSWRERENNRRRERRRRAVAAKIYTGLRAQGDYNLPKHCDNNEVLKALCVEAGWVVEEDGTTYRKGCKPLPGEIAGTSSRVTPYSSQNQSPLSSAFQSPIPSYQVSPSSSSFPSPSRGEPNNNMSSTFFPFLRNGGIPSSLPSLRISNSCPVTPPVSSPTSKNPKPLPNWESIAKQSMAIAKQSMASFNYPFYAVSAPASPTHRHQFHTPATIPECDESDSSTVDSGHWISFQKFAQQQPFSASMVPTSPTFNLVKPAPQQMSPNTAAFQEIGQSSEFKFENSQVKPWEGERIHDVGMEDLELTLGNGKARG

B1: GST-BSU1-P (C-terminal phosphatase domain) (protein)
chain: DNYMLLDDYLMDEPKPLSSEPEASSFIMRSTSEIAMDRLAEAHNLPTIENAFYDSAIEGYVPLQHGAETVGNRGGLVRTASLDQSTQDLHKKVISTLLRPKTWTPPANRDFFLSYLEVKHLCDEVEKIFMNEPTLLQLKVPIKVFGDIHGQYGDLMRLFHEYGHPSVEGDITHIDYLFLGDYVDRGQHSLEIIMLLFALKIEYPKNIHLIRGNHESLAMNRIYGFLTECEERMGESYGFEAWLKINQVFDYLPLAALLEKKVLCVHGGIGRAVTIEEIENIERPAFPDTGSMVLKDILWSDPTMNDTVLGIVDNARGEGVVSFGPDIVKAFLERNGLEMILRAHECVIDGFERFADGRLITVFSATNYCGTAQNAGAILVIGRDMVIYPKLIHPHPPPISSSEEDYTDKAWMQELNIEMPPTPARGESSE
Consider B1, for which, in the data set with GST-BIN2, Q39011, the “BIN2 phosphorylation of MBP-BZR1 (in vitro kinase assay with 32P-γATP)” value is listed as “The phosphatase domain of BSU1 reduced BIN2 phosphorylation of BZR1”.

B2: GST-BIN2 (protein)
chain: MADDKEMPAAVVDGHDQVTGHIISTTIGGKNGEPKQTISYMAERVVGTGSFGIVFQAKCLETGETVAIKKVLQDRRYKNRELQLMRVMDHPNVVCLKHCFFSTTSKDELFLNLVMEYVPESLYRVLKHYSSANQRMPLVYVKLYMYQIFRGLAYIHNVAGVCHRDLKPQNLLVDPLTHQVKICDFGSAKQLVKGEANISYICSRFYRAPELIFGATEYTTSIDIWSAGCVLAELLLGQPLFPGENAVDQLVEIIKVLGTPTREEIRCMNPHYTDFRFPQIKAHPWHKIFHKRMPPEAIDFASRLLQYSPSLRCTALEACAHPFFDELREPNARLPNGRPFPPLFNFKQEVAGSSPELVNKLIPDHIKRQLGLSFLNQSGT
Consider B2, for which the “BIN2 phosphorylation of MBP-BZR1 (in vitro kinase assay with 32P-γATP)” value in data set [1] is “the Kelch repeat domain showed no effect”.

B3: GST-AtSK12 (protein)
chain: MASVGIEPSAAVRESTGNVTDADRLPEEMKDMKIQDDKEMEATIVNGNVTETGHIIVTTIGGRNGQPKQTISYMAERVVGHGSFGVVFQAKCLETGETVAIKKVLQDRRYKNRELQTMRLLDHPNVVSLKHCFFSTTEKDELYLNLVLEYVPETVHRVIKHYNKLNQRMPLVYVKLYTYQIFRSLSYIHRCIGVCHRDIKPQNLLVNPHTHQVKLCDFGSAKVLVKGEPNISYICSRYYRAPELIFGATEYTTAIDVWSAGCVLAELLLGQPLFPGESGVDQLVEIIKVLGTPTREEIKCMNPNYTEFKFPQIKAHPWHKIFHKRMPPEAVDLVSRLLQYSPNLRCAALDSLVHPFFDELRDPNARLPNGRFLPPLFNFKPHELKGVPVEMVAKLVPEHARKQCPWLSL
For the protein B3, the “phosphorylation of MBP-BZR1 (in vitro kinase assay with 32P-γATP)” value with MBP-BZR1, Q8S307 is reported as “AtSK12 strongly phosphorylates BZR1 in vitro”.

Values taken from US20120322150.
